{"source": "patent US20090155255A1", "about": "(Biogen, published 2009)", "binders": {"B1": {"name": "PRIMATIZED p5E8 Fab (Fab, V domains shown)", "VH": "EVQLVESGGGLAKPGGSLRLSCAASGFRFTFNNYYMDWVRQAPGQGLEWVSRISSSGDPTWYADSVKGRFTISRENAKNTLFLQMNSLRAEDTAVYYCASLTTGSDSWGQGVLVTVSS", "VL": "DIQMTQSPSSLSASVGDRVTITCRASQDIRYYLNWYQQKPGKAPKLLIYVASSLQSGVPSRFSGSGSGTEFTLTVSSLQPEDFATYYCLQVYSTPRTFGQGTKVEIKR", "notes": "domain: CH1"}}, "key": {"[1]": {"target": "T1, soluble CD23 antigen (soluble and monomeric form) (UniProt P06734 150-321, limits assumed)", "T1 construct": "also called free CD23", "T1 sequence (looked up)": "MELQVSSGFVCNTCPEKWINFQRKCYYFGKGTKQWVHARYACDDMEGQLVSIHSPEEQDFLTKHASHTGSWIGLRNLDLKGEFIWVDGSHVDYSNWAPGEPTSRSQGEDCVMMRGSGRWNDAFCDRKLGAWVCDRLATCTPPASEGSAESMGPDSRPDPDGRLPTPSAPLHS", "assay": "isothermal titration calorimetry, average over temperatures", "method": "Isothermal titration calorimetry (ITC) accurately measures the thermodynamics of protein-protein interactions and can further provide the stoichiometry of the experimental complex. CD23, C-terminal tetravalent p5E8, p5E8 IgG and p5E8 Fab were extensively dialyzed for 12 hours against PBS. ITC experiments were performed on an iTC200 microcalorimeter (MicroCal LLC, Northampton, Mass.). After degassing, 25×1.5 μl aliquots of 100 μM CD23 were injected at 5 minute intervals into the 350-μl sample cell containing 5 μM solutions of antibody/Fab. Raw data were then integrated and fitted using a nonlinear least squares routine in ITC data analysis software ORIGIN (MicroCal LLC, Northampton, Mass.). The fitting generated values for the independent variables ΔH⁰ (binding enthalpy), N (the stoichiometry), and Kb (binding constant). For each antibody/Fab, ITC experiments were performed at 5° C., 15° C., 25° C., and 37° C. in order to determine the temperature dependence on the binding heats and to optimize the experiments to obtain better signal to noise.\nThe CD23 in the syringe and the antibody in the sample cell are both monomers in solution. On fitting the data, N values approximating 1, 2, and 4 would indicate binding of all available antigen binding sites for the p5E8 Fab, p5E8 IgG and the C-terminal tetravalent p5E8, respectively. […]"}, "[2]": {"target": "T1, soluble CD23 antigen (soluble and …)", "assay": "solution-phase competition Biacore, free CD23 read on an immobilised p5E8 chip; average of three titrations", "method": "In this experiment, the concentration of free CD23 (soluble and monomeric form) in solution is determined by the initial rate of binding to a CM5 Biacore chip containing immobilized p5E8 MAb. Into these CD23 solutions were titrated the p5E8 Fab prepared by papain digestion (one potential binding site), p5E8 MAb (two potential binding sites), and the C-terminal anti-CD23 tetravalent antibody (four potential binding sites). The p5E8 Fab, MAb, and tetravalent antibody are the ligands and CD23 is the analyte being tested.\nP5E8 was immobilized to 20247 RUs on a CM5 sensor chip. CD23 and CD23 plus antibody were flowed over the sensor chip at a 10 μl/min for 3 minutes. Initial binding rates were obtained from a fit to the initial linear portion of the raw sensorgram data (FIG. 23A). The N (stoichiometry) values were determined by plotting the antibody concentration against the initial rate, Vᵢ, obtained at each concentration (FIG. 23B). […] Three experiments measured the initial rates of binding of free CD23 to the p5E8 sensor chip (concentrations for CD23 ranged from 0.15 to 15 nM) in the presence of constant concentrations of antibody of 1, 2.5 and 10 nM. […] The calculated stoichiometries correspond to binding of CD23 antigen to all four available antigen binding sites for the C-terminal tetravalent p5E8."}}}
{"binder": "B1", "values": [{"measurement": "Avg. N (stoichiometry)", "setting": "[1]", "result": 0.99}, {"measurement": "N (stoichiometry, CD23 molecules bound per antibody)", "setting": "[2]", "result": 1.05}]}
